Test results from article PMC4263166.

Target: Spleen tyrosine kinase (Syk) (UniProt P43405)
Assay: affinity purification of mIgG2a-BCRs with protein A/G agarose beads, anti-Syk immunoblot, band intensity quantified
Settings: no inhibitor, Ramos cells

Q: Which results are given for “mIgG2a-BCR (wild-type mouse γ2am expressed in Ramos cells, with Igα/β) (from UniProt P11912;P40259) YF”?
A: response (Syk/γ2am (normalized band intensity)) (stimulated for 5 min with polyclonal goat anti-mouse IgG antibodies): 1.7; response (Syk/γ2am (normalized band intensity)) (unstimulated (0 min α-IgG)): 0.3
